The supplement of paper PMC11246515
± gives the standard deviation of the averaged measurements.

Assay: total protein half-life in vivo (active degradation + dilution); higher = more stable protein
[1] = E. coli NCM3722 delta-clpP delta-lon delta-hslV, growth: N-lim chemostat, doubling time 6 h
[2] = E. coli NCM3722 delta-lon, growth: N-lim chemostat, doubling time 6 h
[3] = E. coli NCM3722 delta-smpB, growth: N-lim chemostat, doubling time 6 h
[4] = wild type E. coli NCM3722, growth: C-lim chemostat, doubling time 6 h
[5] = wild type E. coli NCM3722, growth: C-lim chemostat, doubling time 12 h
[6] = wild type E. coli NCM3722, growth: N-lim chemostat, doubling time 6 h
[7] = E. coli NCM3722 delta-clpP, growth: N-lim chemostat, doubling time 6 h
[8] = E. coli NCM3722 delta-hslV, growth: N-lim chemostat, doubling time 6 h
[9] = wild type E. coli NCM3722, growth: C-lim chemostat, doubling time 3 h
[10] = wild type E. coli NCM3722, growth: N-lim chemostat, doubling time 12 h
[11] = wild type E. coli NCM3722, growth: P-lim chemostat, doubling time 6 h
[12] = wild type E. coli NCM3722, growth: P-lim chemostat, doubling time 12 h

**Q.** Which “total protein half-life in vivo” value [1] does the source give for “MYRIGELAKMAEVTPDTIRYYEKQQMMEHEVRTEGGFRLYTESDLQRLKFIRHARQLGFSLESIRELLSIRIDPEHHTCQESKGIVQERLQEVEARIAELQSMQRSLQRLNDACCGTAHSSVYCSILEALEQGASGVKSGC [P0ACS5]” here?
**A.** 4.46 ± 0.81 h

**Q.** And the “total protein half-life in vivo” value [2]?
**A.** 2.16 h

**Q.** What about the “total protein half-life in vivo” value [3] of the same sequence?
**A.** 0.555 ± 0.043 h

**Q.** And the “total protein half-life in vivo” value [4]?
**A.** 0.866 h

**Q.** What about the “total protein half-life in vivo” value [5] of the same sequence?
**A.** 1 h

**Q.** And the “total protein half-life in vivo” value [6]?
**A.** 0.748 ± 0.26 h

**Q.** With “MLKPDNLPVTFGKNDVEIIARETLYRGFFSLDLYRFRHRLFNGQMSHEVRREIFERGHAAVLLPFDPVRDEVVLIEQIRIAAYDTSETPWLLEMVAGMIEEGESVEDVARREAIEEAGLIVKRTKPVLSFLASPGGTSERSSIMVGEVDATTASGIHGLADENEDIRVHVVSREQAYQWVEEGKIDNAASVIALQWLQLHHQALKNEWA [Q93K97]” as the sequence, how does the “total protein half-life in vivo” value [7] read?
**A.** 4.47 ± 0.8 h

**Q.** What about the “total protein half-life in vivo” value [8] of the same sequence?
**A.** 4.6 ± 0.65 h

**Q.** And the “total protein half-life in vivo” value [2]?
**A.** 4.759 ± 0.044 h

**Q.** What about the “total protein half-life in vivo” value [3] of the same sequence?
**A.** 4.63 ± 0.46 h

**Q.** And the “total protein half-life in vivo” value [9]?
**A.** 3.05 ± 0.36 h

**Q.** What about the “total protein half-life in vivo” value [4] of the same sequence?
**A.** 5.79 ± 0.16 h

**Q.** And the “total protein half-life in vivo” value [5]?
**A.** 11 ± 0.82 h

**Q.** What about the “total protein half-life in vivo” value [6] of the same sequence?
**A.** 4.23 ± 0.34 h

**Q.** What about the “total protein half-life in vivo” value [10] of the same sequence?
**A.** 7.1411 ± 0.0014 h

**Q.** And the “total protein half-life in vivo” value [11]?
**A.** 5.98 ± 0.42 h

**Q.** What about the “total protein half-life in vivo” value [12] of the same sequence?
**A.** 12.9 ± 0.41 h

**Q.** For “MSILVTRPSPAGEELVSRLRTLGQVAWHFPLIEFSPGQQLPQLADQLAALGESDLLFALSQHAVAFAQSQLHQQDRKWPRLPDYFAIGRTTALALHTVSGQKILYPQDREISEVLLQLPELQNIAGKRALILRGNGGRELIGDTLTARGAEVTFCECYQRCAIHYDGAEEAMRWQAREVTMVVVTSGEMLQQLWSLIPQWYREHWLLHCRLLVVSERLAKLARELGWQDIKVADNADNDALLRALQ”, which “total protein half-life in vivo” value [1] is on record?
**A.** 5.34 ± 0.71 h

**Q.** What about the “total protein half-life in vivo” value [7] of the same sequence?
**A.** 4.14 ± 0.96 h

**Q.** And the “total protein half-life in vivo” value [8]?
**A.** 4.13 ± 0.24 h

**Q.** What about the “total protein half-life in vivo” value [2] of the same sequence?
**A.** 4.69 ± 0.62 h

**Q.** And the “total protein half-life in vivo” value [3]?
**A.** 3.57 ± 0.23 h

**Q.** And the “total protein half-life in vivo” value [9]?
**A.** 2.351 ± 0.014 h

**Q.** And the “total protein half-life in vivo” value [4]?
**A.** 4.45 ± 0.14 h

**Q.** And the “total protein half-life in vivo” value [5]?
**A.** 9.45 ± 3.5 h

**Q.** What about the “total protein half-life in vivo” value [6] of the same sequence?
**A.** 3.83 ± 0.21 h

**Q.** And the “total protein half-life in vivo” value [10]?
**A.** 6.5 ± 0.57 h

**Q.** What about the “total protein half-life in vivo” value [11] of the same sequence?
**A.** 5.08 ± 0.62 h

**Q.** And the “total protein half-life in vivo” value [12]?
**A.** 9.38 ± 0.13 h

**Q.** Which “total protein half-life in vivo” value [1] does the source give for “MKKIIALMLFLTFFAHANDSEPGSQYLKAAEAGDRRAQYFLADSWFSSGDLSKAEYWAQKAADSGDADACALLAQIKITNPVSLDYPQAKVLAEKAAQAGSKEGEVTLAHILVNTQAGKPDYPKAISLLENASEDLENDSAVDAQMLLGLIYANGVGIKADDDKATWYFKRSSAISRTGYSEYWAGMMFLNGEEGFIEKNKQKALHWLNLSCMEGFDTGCEEFEKLTNG [P0AF56]” here?
**A.** 2.83 ± 0.045 h

**Q.** What about the “total protein half-life in vivo” value [7] of the same sequence?
**A.** 2.24 ± 1.1 h

**Q.** What about the “total protein half-life in vivo” value [2] of the same sequence?
**A.** 1.32 h

**Q.** What about the “total protein half-life in vivo” value [3] of the same sequence?
**A.** 0.675 h

**Q.** What about the “total protein half-life in vivo” value [9] of the same sequence?
**A.** 1.04 ± 0.074 h

**Q.** And the “total protein half-life in vivo” value [4]?
**A.** 1.62 ± 0.75 h

**Q.** What about the “total protein half-life in vivo” value [5] of the same sequence?
**A.** 2.73 ± 2.1 h

**Q.** And the “total protein half-life in vivo” value [6]?
**A.** 1.12 h

**Q.** What about the “total protein half-life in vivo” value [10] of the same sequence?
**A.** 0.655 h

**Q.** And the “total protein half-life in vivo” value [11]?
**A.** 1.33 ± 0.63 h

**Q.** And the “total protein half-life in vivo” value [12]?
**A.** 1.48 ± 0.49 h

**Q.** Which “total protein half-life in vivo” value [1] does the source give for “MFDVLMYLFETYIHTEAELRVDQDKLEQDLTDAGFEREDIYNALLWLEKLADYQEGLAEPMQLASDPLSMRIYTPEECERLDASCRGFLLFLEQIQVLNLETREMVIERVLALDNAEFELDDLKWVILMVLFNIPGCENAYQQMEELLFEVNEGMLH [P0A828]” here?
**A.** 5.9529 ± 0.00025 h

**Q.** What about the “total protein half-life in vivo” value [7] of the same sequence?
**A.** 0.182 h

**Q.** What about the “total protein half-life in vivo” value [2] of the same sequence?
**A.** 0.569 h

**Q.** And the “total protein half-life in vivo” value [3]?
**A.** 0.365 h

**Q.** And the “total protein half-life in vivo” value [5]?
**A.** 0.0972 h

**Q.** What about the “total protein half-life in vivo” value [6] of the same sequence?
**A.** 1.05 h

**Q.** Which “total protein half-life in vivo” value [7] does the source give for “MDRIIEKLDHGWWVVSHEQKLWLPKGELPYGEAANFDLVGQRALQIGEWQGEPVWLVQQQRRHDMGSVRQVIDLDVGLFQLAGRGVQLAEFYRSHKYCGYCGHEMYPSKTEWAMLCSHCRERYYPQIAPCIIVAIRRDDSILLAQHTRHRNGVHTVLAGFVEVGETLEQAVAREVMEESGIKVKNLRYVTSQPWPFPQSLMTAFMAEYDSGDIVIDPKELLEANWYRYDDLPLLPPPGTVARRLIEDTVAMCRAEYE” here?
**A.** 5.5 ± 1.5 h

**Q.** What about the “total protein half-life in vivo” value [8] of the same sequence?
**A.** 5.52 ± 2 h

**Q.** What about the “total protein half-life in vivo” value [2] of the same sequence?
**A.** 4.5929 ± 0.0003 h

**Q.** And the “total protein half-life in vivo” value [3]?
**A.** 4.57 ± 0.72 h

**Q.** And the “total protein half-life in vivo” value [9]?
**A.** 3.06 ± 1.1 h

**Q.** What about the “total protein half-life in vivo” value [4] of the same sequence?
**A.** 5.09 ± 0.28 h

**Q.** And the “total protein half-life in vivo” value [5]?
**A.** 11.1 ± 0.68 h

**Q.** And the “total protein half-life in vivo” value [6]?
**A.** 4.5 ± 0.24 h

**Q.** And the “total protein half-life in vivo” value [10]?
**A.** 6.936 ± 0.055 h

**Q.** What about the “total protein half-life in vivo” value [11] of the same sequence?
**A.** 5.97 ± 0.23 h

**Q.** And the “total protein half-life in vivo” value [12]?
**A.** 11.17 ± 0.051 h

**Q.** Which results are given for “MNAPFTYSSPTLSVEALKHSIAYKLMFTIGKDPVVANKHEWLNATLFAVRDRLVERWLRSNRAQLSQETRQVYYLSMEFLIGRTLSNAMLSLGIYEDVQGALEAMGLNLEELIDEENDPGLGNGGLGRLAACFLDSLATLGLPGRGYGIRYDYGMFKQNIVNGSQKESPDYWLEYGNPWEFKRHNTRYKVRFGGRIQQEGKKTRWIETEEILGVAYDQIIPGYDTDATNTLRLWSAQASSEINLGKFNQGDYFAAVEDKNHSENVSRVLYPDDSTYSGRELRLRQEYFLVSSTIQDILSRHYQLHKTYDNLADKIAIHLNDTHPVLSIPEMMRLLIDEHQFSWDDAFEVCCQVFSYTNHTLMSEALETWPVDMLGKILPRHLQIIFEINDYFLKTLQEQYPNDTDLLGRASIIDESNGRRVRMAWLAVVVSHKVNGVSELHSNLMVQSLFADFAKIFPGRFTNVTNGVTPRRWLAVANPSLSAVLDEHLGRNWRTDLSLLNELQQHCDFPMVNHAVHQAKLENKKRLAEYIAQQLNVVVNPKALFDVQIKRIHEYKRQLMNVLHVITRYNRIKADPDAKWVPRVNIFGGKAASAYYMAKHIIHLINDVAKVINNDPQIGDKLKVVFIPNYSVSLAQLIIPAADLSEQISLAGTEASGTSNMKFALNGALTIGTLDGANVEMLDHVGADNIFIFGNTAEEVEELRRQGYKPREYYEKDEELHQVLTQIGSGVFSPEDPGRYRDLVDSLINFGDHYQVLADYRSYVDCQDKVDELYELQEEWTAKAMLNIANMGYFSSDRTIKEYADHIWHIDPVRL [P0AC86]”?
**A.** total protein half-life in vivo [1]: 6.11 ± 0.49 h; total protein half-life in vivo [7]: 5.45 ± 0.2 h; total protein half-life in vivo [8]: 5.71 ± 0.2 h; total protein half-life in vivo [2]: 5.65 ± 0.26 h; total protein half-life in vivo [3]: 5.54 ± 0.24 h; total protein half-life in vivo [9]: 3.18 ± 0.28 h; total protein half-life in vivo [4]: 5.27 ± 0.13 h; total protein half-life in vivo [5]: 10.1 ± 0.57 h; total protein half-life in vivo [6]: 5.448 ± 0.0098 h; total protein half-life in vivo [10]: 10.1 ± 0.65 h; total protein half-life in vivo [11]: 6.01 ± 0.15 h; total protein half-life in vivo [12]: 11.9 ± 1 h

**Q.** With “MDYEFLRDITGVVKVRMSMGHEVVGHWFNEEVKENLALLDEVEQAAHALKGSERSWQRAGHEYTLWMDGEEVMVRANQLEFAGDEMEEGMNYYDEESLSLCGVEDFLQVVAAYRNFVQQK [P0A8E5]” as the sequence, how does the “total protein half-life in vivo” value [1] read?
**A.** 4.89 ± 0.087 h

**Q.** What about the “total protein half-life in vivo” value [8] of the same sequence?
**A.** 1.63 ± 0.034 h

**Q.** And the “total protein half-life in vivo” value [2]?
**A.** 2 ± 0.21 h

**Q.** And the “total protein half-life in vivo” value [3]?
**A.** 1.97 ± 0.039 h

**Q.** And the “total protein half-life in vivo” value [9]?
**A.** 2.18 ± 0.056 h

**Q.** What about the “total protein half-life in vivo” value [4] of the same sequence?
**A.** 3.78 ± 0.4 h

**Q.** And the “total protein half-life in vivo” value [5]?
**A.** 6.328 ± 0.025 h

**Q.** And the “total protein half-life in vivo” value [6]?
**A.** 1.78 h

**Q.** What about the “total protein half-life in vivo” value [10] of the same sequence?
**A.** 2.8 h

**Q.** What about the “total protein half-life in vivo” value [11] of the same sequence?
**A.** 2.44 ± 0.26 h

**Q.** And the “total protein half-life in vivo” value [12]?
**A.** 4.45 ± 0.61 h
